Assay results from patent US8304236B2, “Modified biotin-binding protein” (Japan Tobacco Inc., priority 2008, dated 2012).

Key:
[1] = Heat stability of protein structure (soluble protein after heating, SDS-PAGE); assay type: physicochemical; settings: for Thermal stability (temp. at which 50% of protein was lost): heated for 20 minutes
Description: 3-8) Heat Stability of HALU TM2 Protein Structure Each of 0.2 μg/μL TM2 mutant solutions (10 μL (2 μg)) was heated at room temperature, 50, 60, 70, 80, 90, or 99° C. for 20 minutes. Then, the solution was centrifuged at 15000 rpm for 10 minutes, and the soluble protein in the supernatant was suspended in the same volume of 2×SDS sample buffer (250 mM Tris-HCl, pH 6.8, 20% 2-mercaptoethanol, 20% SDS, 20% glycerol). The suspension was heated at 95° C. for 10 minutes, followed by SDS-PAGE. The protein bands were detected by CBB staining A standard curve was prepared using a quantitative marker (LMW ELECTROPHORESIS CALIBRATION KIT; Pharmacia Biotech) with Las-3000 (FUJIFILM) to quantify the protein bands.

[2] = test system: human serum protein; assay: Non-specific adsorption of low-pI TM2 to human serum protein-immobilized magnetic beads; assay type: binding; settings: wild type TM2 = 100
Description: In this embodiment, non-specific binding to human serum was investigated as non-specific adsorption of low-pI TM2 to serum protein-immobilized magnetic beads. Specifically, in order to investigate the non-specific binding of low-pI TM2, the amount of low-pI TM2 adsorbed to magnetic beads to which human serum protein was covalently bonded was measured. TM2 K26A, TM2 K73Q, TM2 R104E, TM2 K141E, and TM2 R104EK141E, which were highly expressed in Escherichia coli, were used as the low-pI TM2 to be investigated.
Human serum protein and magnetic beads were bound to each other as follows. Magnetic beads having surfaces coated with carboxyl groups (Dynabeads M-270 Carboxylic Acid, Dynal, 210 μL) were washed with 0.01 N sodium hydroxide (210 μL) for 10 minutes and then with ultrapure water (210 μL) for 10 minutes three times. To the washed magnetic beads, 1-ethyl-3-(3-dimethylaminopropyl)carbodiimide hydrochloride (EDC, PIERCE) dissolved in cooled ultrapure water was added into a final concentration of 0.2 M, and the mixture was shaken at room temperature for 30 minutes. Then, the magnetic beads were washed with cooled ultrapure water (210 μL) and then with 50 mM MES buffer (pH 5.0, 210 μL).
To the magnetic beads, 1 mg/mL human serum protein (CHEMICON, 210 μL) dialyzed with 50 mM MES buffer (pH 5.0) was added. The mixture was shaken at room temperature for 30 minutes to covalently bind the human serum protein to the magnetic beads. The magnetic beads were collected with a magnet to remove the supernatant. The unreacted active groups on the beads were eliminated with 50 mM tris buffer (pH 7.0, 210 μL), and then the magnetic beads were blocked with a PBS buffer (420 μL) containing 0.5% BSA and 0.1% Tween 20. The magnetic beads were suspended in a PBS buffer (210 μL) to obtain human serum protein-immobilized magnetic beads.
The magnetic beads (7 μL) and 0.56 μg/mL of each low-pI TM2 (100 μL) were mixed for reaction at room temperature for 1 hour. The magnetic beads were collected with a magnetic, and the supernatant was removed. After washing with 20 mM potassium phosphate buffer (500 μL) containing 500 mM sodium chloride, the magnetic beads were mixed with 20 μL of 2×SDS sample buffer (250 mM Tris-HCl, pH 6.8, 20% 2-mercaptoethanol, 20% SDS, 20% glycerol), followed by heating at 95° C. for 20 minutes to dissociate the low-pI TM2 from the magnetic beads.
This sample was subjected to SDS-PAGE and then western blotting analysis to determine the amount of the low-pI TM2. Anti-tamavidin 2 rabbit antibody and alkaline phosphatase-labeled anti-rabbit IgG goat antibody were used as the primary antibody and the secondary antibody, respectively. The bands were detected with Alkaline Phosphatase Substrate Kit II <VECTOR Black> (VECTRO) and were quantified with Las-3000 (FUJIFILM).

[3] = test system: Salmon sperm DNA; assay: Non-specific binding to DNA (membrane-adsorbed DNA, biotinylated HRP, ECL); settings: salmon sperm DNA 10 μg to 1 μg on membrane, 25 μg/mL protein
Description: Salmon sperm DNA diluted stepwise from 10 μg to 1 μg with 2×SSC buffer was denatured with an alkali and was adsorbed to Hybond N+membrane (Amersham Biosciences) using Bio-Dot SF (BIO-RAD). After blocking the membrane with 5×Denhardt's solution (0.1% BSA, 0.1% ficoll, 0.1% polyvinylpyrrolidone), the membrane was immersed in 25 μg/mL of low-pI TM2 or the wild-type TM2 at room temperature for 90 minutes. Then, the membrane was washed with a TUBS buffer (TBS buffer containing 0.05% Tween 20) at room temperature for 5 minutes three times. The membrane was blocked with a TBS buffer containing 3% skimmed milk and 0.1% Tween 20 for 1 hour. The membrane was subjected to a reaction with biotinylated horseradise peroxidase (Vector) diluted 5000 times with a TBS buffer containing 3% skimmed milk and 0.1% Tween 20 at room temperature for 1 hour. The membrane was washed with a TBS buffer containing 0.1% Tween 20 again and was then shaken in a solution that is a mixture of reagent 1 and reagent 2 of ECL (Amasham) in the same volumes, followed by detection of the luminol reaction with Las-3000 (FUJIFILM).
The non-specific binding of HALU TM2 to DNA was analyzed by the process in paragraph 1-11) of Example 1.

Row | Molecule | Thermal stability (temp. at which 50% of protein was lost) [1] | Thermal stability (temp. at which 50% of protein was lost) ([1]; listed as TM2WT) [°C] | Non-specific binding of serum protein (%) [2] [%] | Non-specific binding of DNA [3] | Non-specific binding of DNA ([3]; listed as wild type TM2) | protein remained after heating ([1]; heated at 99° C. for 20 minutes) [%]
1 | TM2: wild type tamavidin 2, biotin-binding protein from Pleurotus cornucopiae, amino acid sequence SEQ ID NO: 2 (protein, listed as Pleurotus cornucopiae) MSDVQSSLTGTWYNELNSKMELTANKDGTLTGKYLSKVGDVYVPYPLSGRYNLQPPAGQGVALGWAVSWENSKIHSATTWSGQFFSESSPVILTQWLLSSSTARGDVWESTLVGNDSFTKTAPTEQQIAHAQLHCRAPRLK | 87.5 °C | 86 | 100 | weakly bound | weakly bound | 
2 | TM2 D40NR104EK141E: TM2 mutant having mutation of D40N and R104EK141E; SEQ ID NO: 24 (protein, Synthetic TM2 D40NR104EK141E) MSDVQSSLTGTWYNELNSKMELTANKDGTLTGKYLSKVGNVYVPYPLSGRYNLQPPAGQGVALGWAVSWENSKIHSATTWSGQFFSESSPVILTQWLLSSSTAEGDVWESTLVGNDSFTKTAPTEQQIAHAQLHCRAPRLE | 99 °C or |  |  | lower than the detection limit |  | 78
